Measurements from patent US20150050670A1.

Experiments:
Details in all cases: chains Vgamma:Vdelta
peptide on (human) [1] = test: IFNγ ELISA, CD4+ transduced T-cells against Daudi, pamidronate titration; full-length, on cells; parameters: unit not given here
peptide on (human) [2] = test: IFNγ ELISA, CD4+ transduced T-cells against Daudi, pamidronate titration; against γ9-G115wt/δ2-G115wt (max. 800 pg/ml); full-length, on cells
peptide on (human) [3] = test: IFNγ ELISA, CD4+ transduced T-cells against Daudi, pamidronate titration; against γ9-G115wt/δ2-G115wt (max. 800 pg/ml); the clone number is missing in the printed name; full-length, on cells

B1: γ9-cl3wt/δ2-cl3wt (protein)
chain 1: AGHLEQPQISSTKTLSKTARLECVVSGITISATSVYWYRERPGEVIQFLVSISYDGTVRKESGIPSGKFEVDRIPETSTSTLTIHNVEKQDIATYYCALWEEELGKKIKVFGPGTKLIIT
chain 2: AIELVPEHQTVPVSIGVPATLRCSMKGEAIGNYYINWYRKTQGNTMTFIYREKDIYGPGFKDNFQGDIDIAKNLAVLKILAPSERDEGSYYCACDLLGYTDKLIFGKGTRVTVEP
Question: How did the EC50 of pamidronate (peptide on (human) [1]) turn out when B1 was run?
Answer: 30

Question: What about the maximal IFNγ secretion (peptide on (human) [2]) of the same binder?
Answer: 600 µg/mL

B2: γ9-cl3wt/δ2-G115wt (protein)
chain 1: AGHLEQPQISSTKTLSKTARLECVVSGITISATSVYWYRERPGEVIQFLVSISYDGTVRKESGIPSGKFEVDRIPETSTSTLTIHNVEKQDIATYYCALWEEELGKKIKVFGPGTKLIIT
chain 2: AIELVPEHQTVPVSIGVPATLRCSMKGEAIGNYYINWYRKTQGNTMTFIYREKDIYGPGFKDNFQGDIDIAKNLAVLKILAPSERDEGSYYCACDTLGMGGEYTDKLIFGKGTRVTVEP
Question: Which maximal IFNγ secretion (peptide on (human) [3]) does the source give for B2 here?
Answer: 100 pg/mL
